Publication PMC8307404, “Crystal Structure-Guided Design of Bisubstrate Inhibitors and Photoluminescent Probes for Protein Kinases of the PIM Family” (Molecules, 2021)
Square brackets hold non-standard residues; d marks the D form. Peptide text beside a SMILES is read from it. * marks the point of attachment. X3 = O=C(CCCCCNCc1nc2c(sc3cc(Br)cnc32)c(=O)[nH]1)*

Key:
Assay in all cases: Kinase profiling (radiometric filter-binding)
Format in all cases: biochemical
CHK2 = CHK2 (Homo sapiens, UniProt O96017); conditions: CHK2, 1 µM inhibitor; read-out: Residual activity, %
Summary of the method: (§1)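 Screening format: radiometric, filter-based capture of phosphorylated substrate by human kinases. Conditions: ATP at/below KM, inhibitor 1 µM (final total). Output: remaining activity in percent of control.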

FGF-R1 = FGF-R1 (Homo sapiens, UniProt P11362); conditions: FGF-R1, 1 µM inhibitor; read-out: Residual activity, %
Summary of the method: as §1

IKK = target: T1, IKK (Homo sapiens, UniProt O14920); conditions: first of two IKK lines (Greek letter lost), 1 µM inhibitor, read-out: Residual activity, %
T1 sequence (O14920 1-756): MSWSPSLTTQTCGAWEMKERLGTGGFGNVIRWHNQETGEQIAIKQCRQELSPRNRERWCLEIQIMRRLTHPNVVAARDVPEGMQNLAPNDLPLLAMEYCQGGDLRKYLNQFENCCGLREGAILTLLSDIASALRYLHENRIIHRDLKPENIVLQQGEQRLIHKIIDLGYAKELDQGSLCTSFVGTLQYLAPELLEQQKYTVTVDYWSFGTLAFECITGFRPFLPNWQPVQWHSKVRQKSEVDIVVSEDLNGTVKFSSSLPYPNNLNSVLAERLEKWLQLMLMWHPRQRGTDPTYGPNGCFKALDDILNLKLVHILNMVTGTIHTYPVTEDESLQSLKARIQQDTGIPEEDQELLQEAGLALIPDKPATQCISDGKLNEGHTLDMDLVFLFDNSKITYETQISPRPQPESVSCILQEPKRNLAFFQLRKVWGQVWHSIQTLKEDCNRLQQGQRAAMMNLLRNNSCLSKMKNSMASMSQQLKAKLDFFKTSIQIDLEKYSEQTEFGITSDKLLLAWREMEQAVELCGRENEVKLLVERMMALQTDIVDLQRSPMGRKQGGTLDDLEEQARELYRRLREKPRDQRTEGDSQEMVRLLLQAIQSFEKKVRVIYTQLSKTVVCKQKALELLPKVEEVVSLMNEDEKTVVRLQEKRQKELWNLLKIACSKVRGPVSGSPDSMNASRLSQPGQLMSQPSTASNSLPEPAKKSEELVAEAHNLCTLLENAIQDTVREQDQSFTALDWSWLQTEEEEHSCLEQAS
Summary of the method: as §1

JNK1 = JNK1 (Homo sapiens, UniProt P45983); conditions: JNK1, 1 µM inhibitor; read-out: Residual activity, %
Summary of the method: as §1

MLK3 = MLK3 (Homo sapiens, UniProt Q16584); conditions: MLK3, 1 µM inhibitor; read-out: Residual activity, %
Summary of the method: as §1

RIPK2 = RIPK2 (Homo sapiens, UniProt O43353); conditions: RIPK2, 1 µM inhibitor; read-out: Residual activity, %
Summary of the method: as §1

SRPK1 = SRPK1 (Homo sapiens, UniProt Q96SB4); conditions: SRPK1, 1 µM inhibitor; read-out: Residual activity, %
Summary of the method: as §1

TAK1 = target: T2, TAK1 (Homo sapiens, UniProt O43318); conditions: TAK1, 1 µM inhibitor; read-out: Residual activity, %
T2 sequence (O43318 1-303 limits assumed): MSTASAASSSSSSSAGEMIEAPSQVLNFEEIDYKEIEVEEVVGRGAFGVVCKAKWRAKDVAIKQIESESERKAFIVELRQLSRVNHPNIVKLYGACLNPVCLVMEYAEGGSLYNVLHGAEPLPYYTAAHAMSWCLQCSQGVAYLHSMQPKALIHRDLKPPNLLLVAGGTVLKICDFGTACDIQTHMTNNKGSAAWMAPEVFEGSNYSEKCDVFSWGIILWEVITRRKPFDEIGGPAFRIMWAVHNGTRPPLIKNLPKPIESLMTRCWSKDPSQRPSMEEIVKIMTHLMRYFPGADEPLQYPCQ
Summary of the method: as §1

ZAP70 = target: T3, ZAP70 (Homo sapiens, UniProt P43403); conditions: ZAP70, 1 µM inhibitor; read-out: Residual activity, %
T3 sequence (P43403 1-619): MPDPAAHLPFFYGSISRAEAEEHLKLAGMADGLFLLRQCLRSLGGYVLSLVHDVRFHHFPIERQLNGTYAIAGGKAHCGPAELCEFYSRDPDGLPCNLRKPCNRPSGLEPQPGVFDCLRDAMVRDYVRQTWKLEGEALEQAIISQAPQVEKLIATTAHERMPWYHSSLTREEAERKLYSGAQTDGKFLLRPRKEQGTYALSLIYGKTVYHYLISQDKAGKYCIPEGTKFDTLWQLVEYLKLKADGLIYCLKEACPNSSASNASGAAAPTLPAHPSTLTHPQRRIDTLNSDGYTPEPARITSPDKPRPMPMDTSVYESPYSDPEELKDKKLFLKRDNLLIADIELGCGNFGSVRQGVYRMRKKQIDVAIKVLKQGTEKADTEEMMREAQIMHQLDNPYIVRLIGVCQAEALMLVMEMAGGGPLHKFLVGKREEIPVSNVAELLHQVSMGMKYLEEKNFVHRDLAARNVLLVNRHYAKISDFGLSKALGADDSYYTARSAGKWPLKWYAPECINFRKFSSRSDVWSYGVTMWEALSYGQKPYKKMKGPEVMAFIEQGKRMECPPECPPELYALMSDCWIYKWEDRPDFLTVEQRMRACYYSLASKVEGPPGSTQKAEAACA
Summary of the method: as §1

Chain of JNK1 (P45983 whole entry): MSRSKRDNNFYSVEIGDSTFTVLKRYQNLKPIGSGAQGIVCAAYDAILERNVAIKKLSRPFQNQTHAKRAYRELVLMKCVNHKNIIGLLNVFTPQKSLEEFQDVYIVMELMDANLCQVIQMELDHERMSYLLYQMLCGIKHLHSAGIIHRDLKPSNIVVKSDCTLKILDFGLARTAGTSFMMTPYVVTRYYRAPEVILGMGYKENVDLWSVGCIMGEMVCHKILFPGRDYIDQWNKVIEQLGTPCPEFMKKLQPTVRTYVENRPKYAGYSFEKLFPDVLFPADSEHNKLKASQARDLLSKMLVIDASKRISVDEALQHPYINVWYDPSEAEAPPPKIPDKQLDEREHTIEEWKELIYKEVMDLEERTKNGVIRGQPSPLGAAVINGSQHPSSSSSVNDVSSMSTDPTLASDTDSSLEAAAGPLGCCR
Chain of SRPK1 (Q96SB4 whole entry): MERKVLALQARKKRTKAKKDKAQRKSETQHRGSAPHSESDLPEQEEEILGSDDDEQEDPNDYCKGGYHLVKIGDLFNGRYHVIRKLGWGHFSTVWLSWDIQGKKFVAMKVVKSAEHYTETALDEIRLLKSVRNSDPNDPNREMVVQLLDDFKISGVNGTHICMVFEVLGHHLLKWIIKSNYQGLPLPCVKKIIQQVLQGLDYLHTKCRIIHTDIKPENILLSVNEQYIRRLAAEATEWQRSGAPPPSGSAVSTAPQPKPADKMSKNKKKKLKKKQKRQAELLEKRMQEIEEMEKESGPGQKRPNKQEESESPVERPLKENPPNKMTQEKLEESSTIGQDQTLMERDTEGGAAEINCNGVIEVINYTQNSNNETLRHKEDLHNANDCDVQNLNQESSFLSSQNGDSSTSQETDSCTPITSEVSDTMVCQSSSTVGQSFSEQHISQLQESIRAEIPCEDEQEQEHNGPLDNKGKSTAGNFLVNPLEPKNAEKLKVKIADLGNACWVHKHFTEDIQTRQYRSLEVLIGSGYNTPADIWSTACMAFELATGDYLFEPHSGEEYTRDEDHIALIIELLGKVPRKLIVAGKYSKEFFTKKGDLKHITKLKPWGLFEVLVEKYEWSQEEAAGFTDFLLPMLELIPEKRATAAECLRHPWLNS
Chain of RIPK2 (O43353 whole entry): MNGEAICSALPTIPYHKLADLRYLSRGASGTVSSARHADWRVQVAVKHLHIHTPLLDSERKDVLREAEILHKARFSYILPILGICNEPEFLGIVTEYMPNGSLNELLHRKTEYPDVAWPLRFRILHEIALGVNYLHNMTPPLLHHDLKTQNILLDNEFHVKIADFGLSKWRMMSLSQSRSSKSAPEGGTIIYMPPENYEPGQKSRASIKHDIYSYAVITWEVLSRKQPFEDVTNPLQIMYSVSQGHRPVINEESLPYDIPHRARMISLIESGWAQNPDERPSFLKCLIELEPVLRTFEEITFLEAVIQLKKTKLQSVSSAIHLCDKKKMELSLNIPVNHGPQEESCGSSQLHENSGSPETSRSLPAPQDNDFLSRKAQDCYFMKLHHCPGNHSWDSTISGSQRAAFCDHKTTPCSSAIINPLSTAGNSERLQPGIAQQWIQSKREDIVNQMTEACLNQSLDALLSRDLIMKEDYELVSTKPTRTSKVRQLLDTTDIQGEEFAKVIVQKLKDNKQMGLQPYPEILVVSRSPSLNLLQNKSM
Chain of MLK3 (Q16584 whole entry): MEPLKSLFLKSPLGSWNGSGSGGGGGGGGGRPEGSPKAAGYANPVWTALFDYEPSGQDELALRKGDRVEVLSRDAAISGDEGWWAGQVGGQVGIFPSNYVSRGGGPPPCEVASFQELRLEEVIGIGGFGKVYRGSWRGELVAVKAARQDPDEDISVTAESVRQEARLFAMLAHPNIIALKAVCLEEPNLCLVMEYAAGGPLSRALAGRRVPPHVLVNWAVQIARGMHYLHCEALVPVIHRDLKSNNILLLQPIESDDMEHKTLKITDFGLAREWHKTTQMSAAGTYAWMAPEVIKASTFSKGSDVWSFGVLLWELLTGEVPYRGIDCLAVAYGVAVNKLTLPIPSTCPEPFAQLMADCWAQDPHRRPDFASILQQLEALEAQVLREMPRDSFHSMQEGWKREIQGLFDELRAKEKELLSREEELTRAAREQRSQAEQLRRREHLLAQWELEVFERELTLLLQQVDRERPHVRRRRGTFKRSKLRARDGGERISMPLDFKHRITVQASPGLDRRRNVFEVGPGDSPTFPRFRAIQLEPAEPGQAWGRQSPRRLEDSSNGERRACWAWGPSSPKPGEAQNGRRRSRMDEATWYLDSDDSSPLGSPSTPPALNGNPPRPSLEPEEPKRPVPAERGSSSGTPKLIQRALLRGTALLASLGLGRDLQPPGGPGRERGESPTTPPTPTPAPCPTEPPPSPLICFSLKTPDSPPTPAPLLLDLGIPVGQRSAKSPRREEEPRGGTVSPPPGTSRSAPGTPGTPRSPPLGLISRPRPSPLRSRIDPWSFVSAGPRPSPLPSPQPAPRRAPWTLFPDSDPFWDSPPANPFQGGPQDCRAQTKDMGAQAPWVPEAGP
Chain of FGF-R1 (P11362 22-822): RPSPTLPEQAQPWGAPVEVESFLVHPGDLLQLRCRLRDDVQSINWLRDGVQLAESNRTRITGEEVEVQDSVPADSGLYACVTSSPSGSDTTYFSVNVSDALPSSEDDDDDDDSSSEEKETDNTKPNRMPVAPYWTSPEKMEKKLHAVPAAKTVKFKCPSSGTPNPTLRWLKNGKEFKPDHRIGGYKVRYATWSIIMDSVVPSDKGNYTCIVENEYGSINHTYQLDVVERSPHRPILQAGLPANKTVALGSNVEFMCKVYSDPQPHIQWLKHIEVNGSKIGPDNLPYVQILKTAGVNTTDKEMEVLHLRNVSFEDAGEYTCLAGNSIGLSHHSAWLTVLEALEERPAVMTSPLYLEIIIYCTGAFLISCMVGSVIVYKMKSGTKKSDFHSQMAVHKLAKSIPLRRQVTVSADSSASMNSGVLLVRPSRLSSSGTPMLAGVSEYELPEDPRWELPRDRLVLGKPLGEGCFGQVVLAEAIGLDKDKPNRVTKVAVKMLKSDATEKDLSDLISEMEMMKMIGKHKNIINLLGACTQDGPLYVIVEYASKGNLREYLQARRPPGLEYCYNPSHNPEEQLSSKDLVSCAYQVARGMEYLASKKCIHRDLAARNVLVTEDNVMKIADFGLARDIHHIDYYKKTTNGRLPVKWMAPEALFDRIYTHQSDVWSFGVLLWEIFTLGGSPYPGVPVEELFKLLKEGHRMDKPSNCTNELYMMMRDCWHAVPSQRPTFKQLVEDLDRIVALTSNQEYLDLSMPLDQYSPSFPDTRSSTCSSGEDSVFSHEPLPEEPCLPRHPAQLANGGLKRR
Chain of CHK2 (O96017 whole entry): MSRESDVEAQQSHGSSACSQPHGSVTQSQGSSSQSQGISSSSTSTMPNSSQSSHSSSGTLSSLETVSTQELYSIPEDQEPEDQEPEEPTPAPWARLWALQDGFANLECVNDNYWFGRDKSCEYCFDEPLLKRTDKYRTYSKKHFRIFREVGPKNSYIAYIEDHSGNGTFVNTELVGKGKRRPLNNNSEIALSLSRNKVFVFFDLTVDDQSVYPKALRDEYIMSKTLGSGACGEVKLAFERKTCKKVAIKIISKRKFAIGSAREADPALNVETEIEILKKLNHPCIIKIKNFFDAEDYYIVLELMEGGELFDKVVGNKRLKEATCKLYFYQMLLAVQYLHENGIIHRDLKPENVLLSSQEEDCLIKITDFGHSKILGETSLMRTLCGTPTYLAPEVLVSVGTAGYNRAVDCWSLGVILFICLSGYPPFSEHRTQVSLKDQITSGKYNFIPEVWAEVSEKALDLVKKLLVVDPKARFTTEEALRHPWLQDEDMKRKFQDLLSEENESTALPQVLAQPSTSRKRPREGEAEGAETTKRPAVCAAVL

N=C(N)NCCC[C@@H](NC(=O)CCCCCNC(=O)Cn1cnc2c(I)c(I)c(I)c(I)c21)C(=O)N[C@H](CCCNC(=N)N)C(=O)N[C@H](CCCNC(=N)N)C(=O)N[C@H](CCCNC(=N)N)C(=O)N[C@H](CCCNC(=N)N)C(=O)N[C@H](CCCNC(=N)N)C(=O)N[C@H](CCCCN)C(N)=O [ARC-3125, TIBI-CH2-C(=O)-Ahx-(D-Arg)6-D-Lys-NH2]
remaining activity at 1 µM (CHK2): 116 ± 16% | remaining activity at 1 µM (FGF-R1): 100 ± 19% | remaining activity at 1 µM (IKK): 80 ± 1% | remaining activity at 1 µM (JNK1): 82 ± 13% | remaining activity at 1 µM (MLK3): 98 ± 2% | remaining activity at 1 µM (RIPK2): 37 ± 6% | remaining activity at 1 µM (SRPK1): 54 ± 1% | remaining activity at 1 µM (TAK1): 9 ± 4% | remaining activity at 1 µM (ZAP70): 105 ± 8%

N=C(N)NCCC[C@@H](NC(=O)CNC(=O)[C@@H](CCCNC(=N)N)NC(=O)[C@@H](CCCNC(=N)N)NC(=O)CCCCCCCNCc1nc2c(sc3cc(Br)cnc32)c(=O)[nH]1)C(=O)N[C@H](CCCCN)C(N)=O [Compound 1, BPTP-Aoc-(D-Arg)2-Gly-D-Arg-D-Lys-NH2]
remaining activity at 1 µM (CHK2): 107 ± 9% | remaining activity at 1 µM (FGF-R1): 142 ± 8% | remaining activity at 1 µM (IKK): 97% | remaining activity at 1 µM (JNK1): 100 ± 13% | remaining activity at 1 µM (MLK3): 105 ± 5% | remaining activity at 1 µM (RIPK2): 62 ± 7% | remaining activity at 1 µM (SRPK1): 102 ± 1% | remaining activity at 1 µM (TAK1): 107 ± 3% | remaining activity at 1 µM (ZAP70): 95 ± 21%

N=C(N)NCCC[C@@H](NC(=O)CCCCCNCc1nc2c(sc3cc(Br)cnc32)c(=O)[nH]1)C(=O)N[C@H](CCCNC(=N)N)C(=O)N[C@H](CCCNC(=N)N)C(=O)N[C@H](CCCNC(=N)N)C(=O)N[C@H](CCCNC(=N)N)C(=O)N[C@H](CCCNC(=N)N)C(=O)N[C@H](CCCCN)C(N)=O [ARC-3126, BPTP-Ahx-(D-Arg)6-D-Lys-NH2] (X3-[dR][dR][dR][dR][dR][dR][dK]-NH2)
remaining activity at 1 µM (CHK2): 76 ± 15% | remaining activity at 1 µM (FGF-R1): 102 ± 3% | remaining activity at 1 µM (IKK): 104 ± 2% | remaining activity at 1 µM (JNK1): 116 ± 4% | remaining activity at 1 µM (MLK3): 117 ± 10% | remaining activity at 1 µM (RIPK2): 99 ± 6% | remaining activity at 1 µM (SRPK1): 89 ± 5% | remaining activity at 1 µM (TAK1): 88 ± 17% | remaining activity at 1 µM (ZAP70): 83 ± 30%

N=C(N)NCCC[C@@H](NC(=O)CNC(=O)[C@@H](CCCNC(=N)N)NC(=O)[C@@H](CCCNC(=N)N)NC(=O)Cn1cc(CNCc2nc3c(sc4ccc(Br)cc43)c(=O)[nH]2)nn1)C(=O)N[C@H](CCCCN)C(N)=O [Compound 3, BBTP-Amt-(D-Arg)2-Gly-D-Arg-D-Lys-NH2]
remaining activity at 1 µM (CHK2): 52 ± 10% | remaining activity at 1 µM (FGF-R1): 110 ± 2% | remaining activity at 1 µM (IKK): 90 ± 6% | remaining activity at 1 µM (JNK1): 115 ± 13% | remaining activity at 1 µM (MLK3): 94 ± 2% | remaining activity at 1 µM (RIPK2): 71 ± 8% | remaining activity at 1 µM (SRPK1): 91 ± 2% | remaining activity at 1 µM (TAK1): 99 ± 10% | remaining activity at 1 µM (ZAP70): 53 ± 14%

N=C(N)NCCC[C@@H](NC(=O)CNC(=O)[C@@H](CCCNC(=N)N)NC(=O)[C@@H](CCCNC(=N)N)NC(=O)CCCCCCCNCc1nc2c(sc3ccc(Br)cc32)c(=O)[nH]1)C(=O)N[C@H](CCCCN)C(N)=O [Compound 2, BBTP-Aoc-(D-Arg)2-Gly-D-Arg-D-Lys-NH2]
remaining activity at 1 µM (CHK2): 103 ± 2% | remaining activity at 1 µM (FGF-R1): 126 ± 10% | remaining activity at 1 µM (IKK): 100 ± 11% | remaining activity at 1 µM (JNK1): 112 ± 2% | remaining activity at 1 µM (MLK3): 107 ± 1% | remaining activity at 1 µM (RIPK2): 72% | remaining activity at 1 µM (SRPK1): 113 ± 7% | remaining activity at 1 µM (TAK1): 101 ± 1% | remaining activity at 1 µM (ZAP70): 87 ± 7%
